Measured values taken from publication PMC3891853.

Tests used:
[1] = target: HA-tagged glucocorticoid receptor (GR) (UniProt P04150); assay: co-immunoprecipitation with anti-Flag agarose, Western blot densitometry; details: HEK293 cells, transient transfection, mean + SEM, N = 3, parent: 100, read off a plot
[2] = target: Hsc70/Hsp70; assay: co-immunoprecipitation with anti-Flag agarose, densitometry of co-precipitated Hsc/Hsp70; details: HEK293 cells, transient transfection; mean + SEM, N = 3; parent: 100; read off a plot
[3] = target: Hsc70, in vitro translated and labeled (UniProt P11142)
Sequence of UniProt P11142 (P11142 whole entry): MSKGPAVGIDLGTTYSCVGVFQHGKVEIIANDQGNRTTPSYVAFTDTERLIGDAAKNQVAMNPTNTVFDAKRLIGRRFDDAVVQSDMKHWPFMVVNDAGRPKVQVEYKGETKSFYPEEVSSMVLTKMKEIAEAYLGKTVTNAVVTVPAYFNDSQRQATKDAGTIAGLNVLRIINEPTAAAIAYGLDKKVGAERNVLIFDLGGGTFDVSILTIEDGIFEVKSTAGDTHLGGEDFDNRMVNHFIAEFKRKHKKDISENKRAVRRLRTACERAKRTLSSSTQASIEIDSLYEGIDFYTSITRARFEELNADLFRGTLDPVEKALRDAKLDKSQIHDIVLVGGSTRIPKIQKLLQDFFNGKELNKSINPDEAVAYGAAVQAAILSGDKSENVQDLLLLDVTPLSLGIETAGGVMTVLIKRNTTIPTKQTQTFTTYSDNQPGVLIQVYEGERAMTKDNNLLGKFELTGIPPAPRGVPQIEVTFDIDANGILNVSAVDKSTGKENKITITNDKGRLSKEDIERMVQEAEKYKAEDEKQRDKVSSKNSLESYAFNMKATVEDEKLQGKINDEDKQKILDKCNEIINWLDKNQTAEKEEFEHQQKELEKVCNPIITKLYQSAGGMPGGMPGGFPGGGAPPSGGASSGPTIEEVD

Sequence of UniProt P04150 (P04150 whole entry): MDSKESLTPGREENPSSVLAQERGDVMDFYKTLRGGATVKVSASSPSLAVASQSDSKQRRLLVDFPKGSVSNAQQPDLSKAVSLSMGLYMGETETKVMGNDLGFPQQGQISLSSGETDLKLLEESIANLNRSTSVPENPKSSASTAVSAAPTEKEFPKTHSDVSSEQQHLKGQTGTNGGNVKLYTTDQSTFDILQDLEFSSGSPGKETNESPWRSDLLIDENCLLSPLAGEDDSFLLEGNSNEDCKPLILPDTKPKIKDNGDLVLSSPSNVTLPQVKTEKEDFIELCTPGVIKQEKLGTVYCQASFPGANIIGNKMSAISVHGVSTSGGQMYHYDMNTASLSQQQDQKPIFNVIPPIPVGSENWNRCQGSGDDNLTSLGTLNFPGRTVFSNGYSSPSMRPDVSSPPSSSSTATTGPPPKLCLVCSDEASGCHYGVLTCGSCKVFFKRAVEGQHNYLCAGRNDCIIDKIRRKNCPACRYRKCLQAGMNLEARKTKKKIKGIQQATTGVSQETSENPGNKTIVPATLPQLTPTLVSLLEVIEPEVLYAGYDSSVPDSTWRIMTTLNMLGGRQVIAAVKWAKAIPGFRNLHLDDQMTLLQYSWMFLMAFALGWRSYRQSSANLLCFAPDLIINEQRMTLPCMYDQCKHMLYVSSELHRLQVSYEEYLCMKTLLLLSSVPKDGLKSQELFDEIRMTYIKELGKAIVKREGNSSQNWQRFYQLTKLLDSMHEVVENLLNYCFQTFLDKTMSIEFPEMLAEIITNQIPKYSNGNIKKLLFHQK

| percent of parent (% (BAG-1M = 100%)) [1] | percent of parent (% (BAG-1M = 100%)) [2] | ATPase activity of purified Hsc70 with DJA2 and HspBP1 mut (each 4 µM, 30°C) [3] [min⁻¹] | Molecule |
| --- | --- | --- | --- |
| 18 | 6 | – | Flag-tagged wild-type Bcl2-associated athanogene 1, medium isoform (BAG-1M) R237A |
| – | – | 7.26 | purified HspBP1_mut (A137R, K249A; His-tagged) (natural protein) MSDEGSRGSRLPLALPPASQGCSSGGGGGGSSAGGSGNSRPPRNLQGLLQMAITAGSEEPDPPPEPMSEERRQWLQEAMSAAFRGQREEVEQMKSCLRVLSQPMPPTAGEAEQAADQQEREGALELLADLCENMDNRADFCQLSGMHLLVGRYLEAGAAGLRWRAAQLIGTCSQNVAAIQEQVLGLGALRKLLRLLDRDACDTVRVKALFAISCLVREQEAGLLQFLRLDGFSVLMRAMQQQVQKLKVASAFLLQNLLVGHPEHKGTLCSMGMVQQLVALVRTEHSPFHEHVLGALCSLVTDFPQGVRECREPELGLEELLRHRCQLLQQHEEYQEELEFCEKLLQTCFSSPADDSMDR |
